Experimental findings from publication PMC9930899, “New Insights into rice pyrimidine catabolic enzymes” (Frontiers in Plant Science, 2023) are described below.

Assay type in all cases: biochemical, Oryza sativa
Substrate in series [1]: O=C1CCNC(=O)N1
The series can be described thus: purified protein. Conditions: 0.1 M potassium buffer, pH 8, 1 mg/mL BSA, 37°C.

Substrate in series [2]: CCCCCCCCCCC1=C(C)C(=O)C(OC)=C(OC)C1=O
The series can be described thus: steady-state DHODH activity, Michaelis-Menten fit. Conditions: co-substrate L-dihydroorotate, 30°C. From the text: (§1) steady-state DHODH activity, Michaelis-Menten fit on OsDHODH

Substrate in series [3]: O=C1C[C@@H](C(=O)O)NC(=O)N1
The series can be described thus: steady-state DHODH activity, Michaelis-Menten fit. Conditions: co-substrate decylubiquinone, 30°C.
Source text: as §1

Substrate in series [4]: CC(CNC(N)=O)C(=O)O
As to the kind of experiment: purified protein. The conditions noted are these: 25°C.

Substrate in series [5]: NC(=O)NCCC(=O)O
As to the kind of experiment: purified protein. Conditions: 25°C.

B1: OsDHP-T1 (Oryza sativa Japonica Group) (protein)
chain: EFCAAVGGGSGGCGVGGGGGGDGRRILIRGGTVVNAHRVEEADVYVEDGVIVAVRPNIPVGDDHVKVIDATGKYVMPGGIDPHTHLEMEFMGTVTIDDFFSGHAAALAGGTTMHIDFVIPVNGNLTAGLESYKQKAEKSAMDYGFHMAITKWNDDVSREMETMVKEHGINSFKFFMAYKGSLMVTDDLLLQGLQKCKSLGALAMVHAENGDAVAEGQQRMIDLGITGPEGHALSRPPVLEGEATARAIRLAKFVNTPLYVVHVMSIDAMDEIAKAKREGQRVIGEPVVSGLVLDDSWLWDPDFMIASKYVMSPPIREAGHNKALQVALSSGILQLVGTDHCTFNSTQKAFGSDDFRKIPNGVNGIEERMHIIWDSMVETGRISVSDYVRVTSTECAKIFNIYPRKGAILEGSDADIIILNPERSFVMGAHTHHSRSNTNVYEGRKGKGMVEVTISRGRVVWEDGILNVVPGSGRYVRTPPYSYLFDGIEKSDAAYRASLRAPVKRGKAAA
notes: N-terminal His-tag, pET19b, E. coli; full length 539 residues, 57,989 Da
Regarding B1, in series [1], the Km is 300 ± 40 µM, the kcat is 1.07 ± 0.04 s⁻¹ and the specificity constant (kcat/Km) came to 3550 M⁻¹ s⁻¹.

B2: OsDHODH (Oryza sativa Japonica Group) (protein)
chain: DEAKFCGWLFKSTQLVNPLFALLDAEFAHRLAVTAASHGFVPREKRPDPSVLGLEIWGRKFTNPIGLAAGFDKNAEAVEGLLGMGFGFVEVGSVTPLPQEGNPKPRIFRLREHGAVINRCGFNSEGIVVVAKRLGAQHGKRKMEETSSSTSPTTSDVKQGGKAGPGILGVNLGKNKISEDATADYVQGVHTLSQYADYLVINVSSPNTPGLRKLQGRKQLKDLVKKVQAARDEMQWAEDGPPPLLVKIAPDLSKQDLEDIAAVALALRLDGLIISNTTISRPSPADTHPLAQEAGGLSGKPLFDLSTNVLREMYILTRGKIPLIGCGGVSSGEDAYKKIRSGATLVQLYTAFAYGGPALIPRIKAELAECLERDGFKSVQEAVGADFK
notes: N-terminally truncated, starts at residue 82 (DEAK); N-terminal His-tag, pET15b, E. coli; full length 469 residues
On to B2, for which the Km stood at 4.56 ± 0.67 µM in series [2] and 29.7 ± 3.5 µM in series [3].

B3: Osß-UP (Oryza sativa Japonica Group) (protein)
chain: MDSSNGERPPQGEDAPAAAAGSIGGYESLHRLLQSNLSPELFKEASRLLLGLNCGRALEAISLPEATSALAKAHNFDVQAFRFDADKEYLRQPRVIRVGLIQNSIAIPTTSHFADQKKAIMEKVKPMIDAAGDAGVNILCLQEAWTMPFAFCTREKRWCEFAEPVDGESTQFLQQLAKKYNMVIVSPILERDVNHGEIVWNTAVVIGNHGNIIGIHRKNHIPRVGDFNESTYYMEGNTGHPVFETAYGKIGVNICYGRHHPLNWLAFGLNGAEIVFNPSATVGELSEPMWPIEARNAAIANSYFVGSINRVGTEVFPNPFTSGDGKPQHADFGHFYGSSHFSAPDASCTPSLSRYRDGLMISDMDLNLCRQIKDKWGFRMTARYDTYASLLSEYLKPDFKPQVIVDPLINKSA
notes: full length, 413 residues (45,713 Da), N-terminal His-tag, pET15b, E. coli
B3: in series [4], the Km worked out at 160 ± 20 µM, the catalytic constant (kcat) was determined as 1.36 ± 0.07 s⁻¹ and the kcat/Km was 8500 M⁻¹ s⁻¹. In series [5], the Michaelis constant (Km) turned out to be 140 ± 10 µM, the kcat is 2.54 ± 0.07 s⁻¹ and the catalytic efficiency (kcat/Km) was determined as 18100 M⁻¹ s⁻¹.
